Values quoted from earlier work, collected in PMC6903724.

Biological target: IL-18 (Homo sapiens) (UniProt Q14116)
Sequence (Q14116 37-193): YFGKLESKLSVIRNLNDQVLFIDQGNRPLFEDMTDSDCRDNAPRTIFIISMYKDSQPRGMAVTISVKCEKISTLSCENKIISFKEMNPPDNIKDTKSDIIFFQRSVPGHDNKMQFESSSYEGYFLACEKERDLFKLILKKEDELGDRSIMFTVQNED

IL-18BP, sequence (O95998 31-194): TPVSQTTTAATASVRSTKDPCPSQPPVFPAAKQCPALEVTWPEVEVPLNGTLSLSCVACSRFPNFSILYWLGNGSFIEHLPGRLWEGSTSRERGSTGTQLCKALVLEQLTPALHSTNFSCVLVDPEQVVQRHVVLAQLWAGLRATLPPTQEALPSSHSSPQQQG

IL-18BP (from UniProt O95998)
Kd: 0.4 nM
